The sequences below were run on Escherichia coli TOP10 (assay: shrunken log2 fold change of peptide-encoding DNA abundance (4.5 h post-induction vs induction); higher = less antimicrobial activity (less host growth inhibition)). Settings: time post-induction: 4.5 h; library: site-saturation at positions 5, 18, 19, 20.
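Also: peptides expressed intracellularly from a pBAD plasmid library in pooled LB shake-flask culture, induced with 0.3% L-arabinose, DNA abundance read by NGS, three biological replicates, DESeq2 with apeglm shrinkage.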

Sequence	shrunken log2 fold change
RRIRVRPPRLPRPRPRPDQWPRP	-0.0427
RRIRRRPPRLPRPRPRPSGEPRP	0.387
RRIRYRPPRLPRPRPRPEGTPRP	-0.0176
RRIRWRPPRLPRPRPRPALGPRP	0.645
RRIRPRPPRLPRPRPRPAHHPRP	0.207
RRIRRRPPRLPRPRPRPYDAPRP	-0.635
RRIRYRPPRLPRPRPRPFWIPRP	-0.0013
RRIRIRPPRLPRPRPRPAFKPRP	-0.317
RRIRTRPPRLPRPRPRPIQKPRP	-0.00925
RRIRMRPPRLPRPRPRPKDRPRP	1.87
RRIRDRPPRLPRPRPRPVCWPRP	0.747
RRIRMRPPRLPRPRPRPFVMPRP	-0.0957
RRIRARPPRLPRPRPRPSFIPRP	-0.177
RRIRDRPPRLPRPRPRPRWTPRP	0.289
RRIRQRPPRLPRPRPRPSHLPRP	0.049
RRIRMRPPRLPRPRPRPRMFPRP	0.154
RRIRLRPPRLPRPRPRPWIWPRP	-0.0106
RRIRNRPPRLPRPRPRPCEPPRP	-0.183
RRIRDRPPRLPRPRPRPHMFPRP	-0.0389
RRIRARPPRLPRPRPRPGTKPRP	0.0261
RRIRARPPRLPRPRPRPWANPRP	0.201
RRIRTRPPRLPRPRPRPSCLPRP	-0.624
RRIRCRPPRLPRPRPRPLYYPRP	-1.03

Sequence	shrunken log2 fold change
RRIRGRPPRLPRPRPRPNFGPRP	0.128
RRIRIRPPRLPRPRPRPRGHPRP	-0.114
RRIRCRPPRLPRPRPRPLENPRP	-0.102
RRIRARPPRLPRPRPRPTHYPRP	0.702
RRIRYRPPRLPRPRPRPNAEPRP	-0.122
RRIRWRPPRLPRPRPRPTVIPRP	0.0385
RRIRCRPPRLPRPRPRPYSPPRP	-1.13
RRIRKRPPRLPRPRPRPGVFPRP	0.417
RRIRRRPPRLPRPRPRPVFIPRP	-0.0708
RRIRARPPRLPRPRPRPRNDPRP	0.0481
RRIRFRPPRLPRPRPRPMHGPRP	-0.0727
RRIRYRPPRLPRPRPRPLYEPRP	-0.562
RRIRDRPPRLPRPRPRPHTPPRP	0.0203
RRIRMRPPRLPRPRPRPNYTPRP	-0.434
RRIRMRPPRLPRPRPRPIKHPRP	-0.0825
RRIRTRPPRLPRPRPRPIRSPRP	0.0601
RRIRVRPPRLPRPRPRPMMPPRP	-0.302
RRIRQRPPRLPRPRPRPMWWPRP	0.128
RRIRKRPPRLPRPRPRPVEIPRP	0.0372
RRIRCRPPRLPRPRPRPYKSPRP	-1.19
RRIRDRPPRLPRPRPRPIPKPRP	-0.0116
RRIRYRPPRLPRPRPRPFSVPRP	-0.313
RRIRYRPPRLPRPRPRPSWQPRP	-0.526

Sequence	shrunken log2 fold change
RRIRSRPPRLPRPRPRPMDLPRP	0.0372
RRIRERPPRLPRPRPRPCFIPRP	-0.73
RRIRKRPPRLPRPRPRPTFGPRP	0.0674
RRIRGRPPRLPRPRPRPDWTPRP	0.316
RRIRRRPPRLPRPRPRPCYCPRP	-0.00192
RRIRNRPPRLPRPRPRPNCWPRP	0.241
RRIRERPPRLPRPRPRPLPAPRP	0.065
RRIRWRPPRLPRPRPRPYIWPRP	-0.477
RRIRTRPPRLPRPRPRPAVEPRP	-0.011
RRIRIRPPRLPRPRPRPPDQPRP	-0.0864
RRIRKRPPRLPRPRPRPKVKPRP	0.116
RRIRPRPPRLPRPRPRPYKAPRP	-0.183
RRIRNRPPRLPRPRPRPYEEPRP	-0.277
RRIRMRPPRLPRPRPRPVMNPRP	0.196
RRIRMRPPRLPRPRPRPEHLPRP	0.417
RRIRNRPPRLPRPRPRPRYMPRP	-1.3
RRIRQRPPRLPRPRPRPGKWPRP	0.362
RRIRSRPPRLPRPRPRPWVAPRP	0.0561
RRIRSRPPRLPRPRPRPTQCPRP	0.23
RRIRYRPPRLPRPRPRPVEPPRP	-0.384
RRIRPRPPRLPRPRPRPMTDPRP	0.0653
RRIRLRPPRLPRPRPRPKMHPRP	0.0307
RRIRARPPRLPRPRPRPEGQPRP	1.2

Sequence	shrunken log2 fold change
RRIRARPPRLPRPRPRPRLWPRP	0.724
RRIRDRPPRLPRPRPRPSWQPRP	0.321
RRIRNRPPRLPRPRPRPAFHPRP	-0.436
RRIRARPPRLPRPRPRPQPHPRP	0.347
RRIRTRPPRLPRPRPRPWNKPRP	-0.594
RRIRPRPPRLPRPRPRPTSMPRP	-0.0129
RRIRYRPPRLPRPRPRPERWPRP	0.44
RRIRLRPPRLPRPRPRPQPHPRP	0.077
RRIRFRPPRLPRPRPRPHVGPRP	-0.224
RRIRQRPPRLPRPRPRPHNEPRP	-0.161
RRIRNRPPRLPRPRPRPYPGPRP	-0.123
RRIRLRPPRLPRPRPRPGVFPRP	-0.0879
RRIRHRPPRLPRPRPRPQKIPRP	0.0342
RRIRCRPPRLPRPRPRPVKHPRP	-0.263
RRIRERPPRLPRPRPRPDLNPRP	-0.322
RRIRVRPPRLPRPRPRPSDIPRP	-0.965
RRIRKRPPRLPRPRPRPSKAPRP	-0.0406
RRIRWRPPRLPRPRPRPSGMPRP	0.104
RRIRMRPPRLPRPRPRPMLDPRP	0.722
RRIRQRPPRLPRPRPRPGIWPRP	0.0216
RRIRHRPPRLPRPRPRPFVIPRP	-0.331
RRIRARPPRLPRPRPRPALIPRP	0.379
